Laboratory results taken from patent publication US20230071283A1, “COMPOSITIONS AND METHODS FOR SELECTIVE PROTEIN EXPRESSION” (Novartis AG, priority 2017, published 2023).

How the values were obtained:
[1] = tested on: CD19+ NALM6 cells; assay: Proliferation assay in co-culture with target cells (FACS, counting beads); conditions: presence or absence of bazedoxifene; 4 days; versus parental CAR19
[2] = tested on: primary human T cells; assay: FurON CAR19 surface expression in primary human T cells (FACS, protein L); assay type: cell-based; conditions: cells prepared for the in vivo study; IL2 and 1 uM bazedoxifene; day 10
Procedure: Bazedoxifene and raloxifene were resuspended in DMSO. In all instances, where concentrations not indicated, compounds were added at 1 uM for 24 hours prior to analysis by flow cytometry.
. […] Cell number, size, and viability were also assessed.
Untransduced T cells (UTDs) and the parental CAR19 were used as controls. […] .
CART cells were generated by starting with blood from healthy apheresed donors whose naïve T cells were obtained by negative selection for T cells, CD4+ and CD8+ lymphocytes. These cells were activated by the addition of CD3/CD28 beads (Dynabeads® Human T-Expander CD3/CD28, Thermo Fisher Scientific) at a ratio of 1:3 (T cell to bead) in T cell medium (RPMI1640, 10% heat-inactivated fetal calf serum (FCS), 2 mM L-glutamine, lx Penicillin/Streptomycin, 100 μM non-essential amino acids, 1 mM Sodium Pyruvate, 10 mM Hepes, and 55 μM 2-mercaptoethanol) at 37° C., 5% CO2. T cells were cultured at 4×10^6 T cells (UTDs) or 5×10^6 (CART19 and FurON CART19) in 1 mL medium per well of a 24-well plate. […] T cells began to divide in a logarithmic growth pattern, which is monitored by measuring the cell counts per mL, and T cells are diluted in fresh medium every two days. […] On day 10 the cells are collected and the percentage of cells transduced (expressing the CD19-specific CAR on the cell surface) was determined by flow cytometry analysis on a FACS Fortessa (BD). […]

[3] = tested on: NALM6 (CD19+); assay: Killing assay with luciferized target cells (remaining luciferase activity); conditions: presence or absence of bazedoxifene; 20 hours; versus parental CAR19
[4] = tested on: NALM6, a CD19+ target cell line; assay: Cytokine secretion in co-culture with target cells; conditions: presence or absence of bazedoxifene; 20 hours; versus parental CAR19

B1: construct #130: furin degron with fewer mutations (ERmut2) fused to anti-CD19 scFV CAR; same furin cleavage sequence as #106 (protein)
chain: RSSLALSLTADQMVSALLDAEPPILYSEYDPTRPFSEASMMGLLTNLADRELVHMINWAKRVPGFVDLTLHDQVHLLECAWMEILMIGLVWRSMEHPGKLLFAPNLLLDRNQGKCVEGGVEIFDMLLATSSRFRMMNLQGEEFVCLKSIILLNSGVYTFLSSTLKSLEEKDHIHRVLDKITDTLIHLMAKAGLTLQQQHQRLAQLLLILSHIRHMSNKRMEHLYSMKCKNVVPLSDLLLEMLDAHRLGTGAEDPRPSRKRRSLGDVGEIVMTQSPATLSLSPGERATLSCRASQDISKYLNWYQQKPGQAPRLLIYHTSRLHSGIPARFSGSGSGTDYTLTISSLQPEDFAVYFCQQGNTLPYTFGQGTKLEIKGGGGSGGGGSGGGGSQVQLQESGPGLVKPSETLSLTCTVSGVSLPDYGVSWIRQPPGKGLEWIGVIWGSETTYYSSSLKSRVTISKDNSKNQVSLKLSSVTAADTAVYYCAKHYYYGGSYAMDYWGQGTLVTVSSTTTPAPRPPTPAPTIASQPLSLRPEACRPAAGGAVHTRGLDFACDIYIWAPLAGTCGVLLLSLVITLYCKRGRKKLLYIFKQPFMRPVQTTQEEDGCSCRFPEEEEGGCELRVKFSRSADAPAYKQGQNQLYNELNLGRREEYDVLDKRRGRDPEMGGKPRRKNPQEGLYNELQKDKMAEAYSEIGMKGERRRGKGHDGLYQGLSTATKDTYDALHMQALPPR
In the case of B1, the Proliferation [1] is reported as “proliferate in the presence of CD19+ tumor cells, in a manner that is stabilizing compound-dependent and is noninferior to the parental CAR construct”, the “surface expression (mean fluorescence intensity, MFI)” value [2] is reported as “lower than the observed for CART19” and the Percent tumor lysis [3] is reported as “kill CD19+ tumor cells, in a stabilizing compound- and target-dependent manner and is noninferior to the parental CAR construct”. For the same molecule, the “levels of IFNγ” value [4] was “secrete cytokines in the presence of CD19+ tumor cells, in a manner that is stabilizing compound-dependent and is noninferior to the parental CAR construct”.
